Common to all, as to assay type: cell-based, murine
The test system of experiment [1] is Hes1 promoter (Notch1 signaling). Kind of experiment: Hes1-driven luciferase reporter gene assay in MB114 cells. Conditions: MB114 cells treated overnight with 10 μM. As to the method: (§1) The effect putative angiogenic agents had on MB114 cell activities were determined as follows: (i) cell proliferation using a [^3H]thymidine incorporation assay as described (Albig et al, 2006; Albig and Schiemann, 2004; Albig and Schiemann, 2005); (ii) cell invasion through Matrigel matrices using a modified Boyden-chamber assay as described (Albig et al, 2006; Albig and Schiemann, 2004; Albig and Schiemann, 2005); (iii) p38 MAPK phosphorylation using immunoblot analyses as described (Albig et al, 2006; Albig and Schiemann, 2004; Albig and Schiemann, 2005); (iv) angiogenic sprouting in rat tail collagen matrices as described (Albig et al, 2006; Albig and Schiemann, 2004); and (v) Hes1- and SBE-driven luciferase reporter gene assays as described (Albig et al, 2006; Albig and Schiemann, 2004; Albig and Schiemann, 2005).
MAGP-2 can interact physically with Notch1 and its ligand, Jagged-1 (Miyamoto et al, 2006; Nehring et al, 2005), resulting in the ectodomain shedding of both molecules from the cell surface. Notch signaling also plays an essential role in regulating normal vessel development and angiogenesis in mammals (Leong and Karsan, 2005; Shawber and Kitajewski, 2004). Given these two facts, the inventors hypothesized that MAGP-2 promotes angiogenesis by modulating Notch1 signaling. To test this hypothesis, first measured were changes in luciferase expression driven by a Hes1-luciferase reporter gene whose expression is induced by Notch1 activation (Iso et al, 2003). MB114 and HUVEC cells were transiently transfected either with pHes1-luciferase, pCMV-β-gal, and MAGP-2 cDNAs, or with pHes1-luciferase and pCMV-β-gal cDNAs and subsequently stimulated with rMAGP-2 (1 or 5 mg/ml). Afterward, luciferase and β-gal activities contained in detergent-solubilized cell extracts were measured. In addition, GFP- and MAGP-2-expressing MB114 cells were transiently transfected with pHes1-luciferase and pCMV-β-gal cDNAs, together with or without Jagged-1 cDNA as indicated. Afterward, luciferase and β-gal activities were measured as above.
To further investigate the impact of MAGP-2 on Notch1 processing and NICD accumulation, the inventors took advantage of recent findings showing that the ability of TGF-β to induce Hes1 promoter activity requires Smad3 to interact physically with NICD (Blokzijl et al, 2003), a reaction that is dispensable for canonical Smad3-mediated signaling stimulated by TGF-β (Blokzijl et al, 2003). It was therefore reasoned that the ability of MAGP-2 to inhibit NICD production in ECs would reduce the capacity of TGF-β to induce luciferase expression driven by the Hes1 promoter, but not that driven by the synthetic Smad2/3-binding element (SBE). GFP- and MAGP-2-expressing MB114 cells were transiently transfected with either pHes1- or pSBE-luciferase, both together with pCMV-β-gal as indicated in FIG. 4B. Afterward, the resulting transfectants were stimulated overnight with increasing concentrations of TGF-β1 (0-5 ng/ml).
Based on the findings described in the Examples above, the inventors hypothesized that MAGP-2 promotes angiogenesis by antagonizing Notch1 signaling. To test this hypothesis, it was first determined whether inhibiting Notch signaling in MB114 cells would enhance their angiogenic sprouting. […] Afterward, luciferase and β-gal activities were determined. […]
A general note: Reporter assays use an easily measured gene product as a stand-in for the process of interest.

Experiment [2] deals with MB114 cells. Kind of experiment: angiogenic sprouting in rat tail collagen matrices. The following applies: 5 days; for angiogenic sprouting of quiescent MB114 cell monolayers: MB114 cells stably expressing the transgene vs GFP, 10% FBS. The procedure:
as §1
Finally, it was determined whether expression of these putative angiogenic factors could effect the angiogenic sprouting of quiescent MB114 cells monolayers. MB114 cells expressing either GFP or various putative angiogenic agents were grown to confluency, and subsequently were overlaid with rat tail collagen matrices. Angiogenic sprouting by quiescent EC monolayers was stimulated by inclusion of 10% FBS and allowed to proceed for 5 days. The quantity of invading angiogenic sprouts was determined by manual counting under a light microscope.
Based on the findings described in the Examples above, the inventors hypothesized that MAGP-2 promotes angiogenesis by antagonizing Notch1 signaling. To test this hypothesis, it was first determined whether inhibiting Notch signaling in MB114 cells would enhance their angiogenic sprouting. In doing so, MB114 cells were transiently transfected with the Hes1-luciferase reporter gene (and pCMV-β-gal cDNA as control), and subsequently were treated overnight with or without the highly specific gamma-secretase inhibitor, DAPT (Sastre et al, 2001), which inhibits S3-mediated cleavage of Notch1 and, consequently, NICD-mediated induction of Hes1 expression. Afterward, luciferase and β-gal activities were determined. […] In this experiment, quiescent MB114 cell monolayers were overlaid with rat tail collagen matrices, and were induced to form angiogenic sprouts by addition of 10% FBS supplemented with or without DAPT (10 μM). Five days later the number of invading angiogenic spouts were quantified by manual counting on a light microscope. Based on these findings, the inventors conclude that Notch activation functions in mediating angiostasis in MB114 cells. […] Collectively, these findings indicate that Notch1 signaling antagonizes angiogenic sprouting in MB114 cells, and that downregulation of Notch1 signaling components is necessary for angiogenesis activation in MB114 cells.
Having shown that Notch1 signaling mediates angiostasis in MB114 cells, the inventors next asked whether MAGP-2 promotes angiogenesis in MB114 cells via its ability to antagonize Notch signaling. To do so, MAGP-2-expressing MB114 cells were engineered to constitutively express active Notch1 NICD fragment in an attempt to overcome the block of Notch processing mediated by MAGP-2. More particularly, GFP-, MAGP-2-, and MAGP-2/N1ICD-expressing MB114 cells were transiently transfected with pHes1-luciferase and pCMV-β-gal cDNAs. Luciferase and β-gal activities were determined 48 h post-transfection. As the inventors observed previously, MAGP-2 expression reduced Hes1-luciferase activity in MB114 cells (FIG. 5C), a reaction that was bypassed by co-expression of NICD in these cells (FIG. 5C). […] In this experiment, quiescent monolayers of GFP-, MAGP-2-, and MAGP-2/N1ICD-expressing MB114 cells were overlaid with rat tail collagen matrices and incubated in the absence or presence of 10% FBS for 5 days. Afterward, the number of invading angiogenic sprouts were determined by manual counting under a light microscope.

Experiment [3] has as its system MB114 cells. Kind of experiment: cell proliferation, [3H]thymidine incorporation assay. Conditions: serum-starved MB114 cells stably expressing the transgene vs GFP; EGF 10 ng/ml, 24 h, 37° C. As to the method: as §1
(§2) FIG. 1A show results from an experiment in which serum-starved MB114 cells, stably expressing either GFP or various putative angiogenic agents, were stimulated in the absence or presence of either bFGF (50 ng/ml) or EGF (10 ng/ml) for 24 h at 37° C. Differences in MB114 cell DNA synthesis was determined by measuring [^3H]thymidine incorporation into cellular DNA. […] In this experiment, invasion of MB114 cells expressing either GFP or various putative angiogenic agents through synthetic basement membranes was determined over 48 h using a modified Boyden-chamber assay.
For orientation: Dividing cells build labelled thymidine or BrdU into new DNA.

Experiment [4] deals with MB114 cells. Kind of experiment: cell invasion through Matrigel matrices, modified Boyden-chamber assay. Conditions: MB114 cells stably expressing the transgene vs GFP; 48 h. The procedure:
as §1, §2

This is an account of results in patent US8629107B2, “Genes and proteins associated with angiogenesis and uses thereof” (National Jewish Health, priority 2005, dated 2014).

As to `C[C@H](NC(=O)Cc1cc(F)cc(F)c1)C(=O)N[C@H](C(=O)OC(C)(C)C)c1ccccc1` [DAPT, reference compound], the “Hes1 promoter activity (Hes1-luciferase)” value in experiment [1] is “significantly inhibited”. For the same molecule, the “number of invading angiogenic sprouts” value in the experiment with MB114 cells [2] (MB114 monolayers, 10% FBS with 10 μM compound vs untreated) is recorded as “significantly more”.

B1: AK002276: putative transmembrane protein stably expressed in MB114 cells by retroviral transduction (protein, listed as Mus musculus)
chain: MASRESGGSRAAALLLVLGVERSLALPKICTLCPGGMHNLSRVAAYCEDTSKLMQARCCLNQKGPILGLNLQNCSLKDPGPNFLQAYTAIIIDLQANPLKDDLANTFRGFTQLQTLILPQDVPCPGGSNAWDNVTSFKDKQICQGQRDLCNSTGSPEMCPENGSCASDGPGLLQCVCADGFHGYKCMRQGSFSLLMFFGILGSTTLAISILLWGTQRRKAKAS
Regarding B1, the “proliferative response of MB114 cells to EGF ([3H]thymidine incorporation into cellular DNA)” value in the experiment with MB114 cells [3] is listed as “significantly enhanced”. In addition, the “angiogenic sprouting of quiescent MB114 cell monolayers” value (“angiogenic sprouting” for short) with MB114 cells [2] is recorded as “failed to significantly affect”.

B2: ECM-1: secretory glycoprotein stably expressed in MB114 cells by retroviral transduction (protein, UniProt Q61508 20-559, looked up)
Extracellular matrix protein 1: ASEGAFKASDQREMTPERLFQHLHEVGYAAPPSPPQTRRLRVDHSVTSLHDPPLFEEQREVQPPSSPEDIPVYEEDWPTFLNPNVDKAGPAVPQEAIPLQKEQPPPQVHIEQKEIDPPAQPQEEIVQKEVKPHTLAGQLPPEPRTWNPARHCQQGRRGVWGHRLDGFPPGRPSPDNLKQICLPERQHVIYGPWNLPQTGYSHLSRQGETLNVLETGYSRCCRCRSDTNRLDCLKLVWEDAMTQFCEAEFSVKTRPHLCCRLRGEERFSCFQKEAPRPDYLLRPCPVHQNGMSSGPQLPFPPGLPTPDNVKNICLLRRFRAVPRNLPATDAIQRQLQALTRLETEFQRCCRQGHNHTCTWKAWEGTLDGYCERELAIKTHPHSCCHYPPSPARDECFAHLAPYPNYDRDILTLDLSRVTPNLMGQLCGSGRVLSKHKQIPGLIQNMTIRCCELPYPEQACCGEEEKLAFIENLCGPRRNSWKDPALCCDLSPEDKQINCFNTNYLRNVALVAGDTGNATGLGEQGPTRGTDANPAPGSKEE
B2: the “angiogenic sprouting” value in the experiment on MB114 cells [2] is listed as “significantly decreased”.

B3: matrillin-2: secretory protein stably expressed in MB114 cells by retroviral transduction (protein, UniProt O08746 24-956, looked up)
Matrilin-2: RERPQARFPSRGRHVRMYPQTALLESSCENKRADLVFIIDSSRSVNTYDYAKVKEFILDILQFLDIGPDVTRVGLLQYGSTVKNEFSLKTFKRKSEVERAVKRMRHLSTGTMTGLAIQYALNIAFSEAEGARPLRENVPRIIMIVTDGRPQDSVAEVAAKARNTGILIFAIGVGQVDLNTLKAIGSEPHKDHVFLVANFSQIESLTSVFQNKLCTVHMCSVLEHNCAHFCLNTPGSYICKCKQGYILSTDQKTCRIQDLCATEDHGCEQLCVNMLGSFVCQCYSGYTLAEDGKRCTAVDYCASENHGCEHECVNAESSYLCRCHEGFALNSDKKTCSKIDYCASSNHGCQHECVNAQTSALCRCLKGFMLNPDRKTCRRINYCALNKPGCEHECVNTEEGHYCRCRQGYNLDPNGKTCSRVDHCAQQDHGCEQLCLNTEESFVCQCSEGFLINDDLKTCSRADYCLLSNHGCEYSCVNTDKSFACQCPEGHVLRSDGKTCAKLDSCALGDHGCEHSCVSSEDSFVCQCFEGYILRDDGKTCRRKDVCQDVNHGCEHLCVNSGESYVCKCLEGFRLAEDGKRCRRKNVCKSTQHGCEHMCVNNGNSYLCRCSEGFVLAEDGKHCKRCTEGPIDLVFVIDGSKSLGEENFETVKHFVTGIIDSLAVSPKAARVGLLQYSTQVRTEFTLRGFSSAKEMKKAVTHMKYMGKGSMTGLALKHMFERSFTQVEGARPPSTQVPRVAIVFTDGRAQDDVSEWASKAKANGITMYAVGVGKAIEEELQEIASEPIDKHLFYAEDFSTMGEISEKLKEGICEALEDSGGRQDSAAWDLPQQAHQPTEPEPVTIKIKDLLSCSNFAVQHRFLFEEDNLSRSTQKLFHSTKSSGNPLEESQDQCKCENLILFQNVANEEVRKLTQRLEEMTQRMEALENRLKYR
As for B3, the “angiogenic sprouting” value in the experiment on MB114 cells [2] is given as “failed to significantly affect”.

B4: CRELD-2: secretory protein stably expressed in MB114 cells by retroviral transduction (protein, UniProt Q9CYA0 23-350, looked up)
Protein disulfide isomerase …: SRKPTMCQRCRTLVDKFNQGMANTARKNFGGGNTAWEEKTLSKYEFSEIRLLEIMEGLCDSSDFECNQLLEQQEEQLEAWWQTLKKEHPNLFEWFCVHTLKACCLPGTYGPDCQECQGGSERPCSGNGYCSGDGSRQGDGSCQCHTGYKGPLCIDCTDGFFSLQRNETHSICSACDESCKTCSGPSNKDCIQCEVGWARVEDACVDVDECAAETSPCSDGQYCENVNGSYTCEDCDSTCVGCTGKGPANCKECIAGYTKESGQCTDIDECSLEEKACKRKNENCYNVPGSFVCVCPEGFEETEDACVQTAEGKVTEENPTQPPSREDL
As for B4, the “MB114 cell invasion through synthetic basement membranes” value in the experiment with MB114 cells [4] is listed as “significantly induced”. The “angiogenic sprouting” value in the experiment on MB114 cells [2] is on record as “failed to significantly affect”.
